# Data as given in patent US20140087995A1 (published 2014).
# Numbered stars: 1 amine (or outer) side, 2 acyl side, 3 side chain; on linkers, the order of the positions; unused ones are H or OH. Bridge positions count the residues as written; N and C are the ends. Side chains are listed from the residue outwards. Ends that are not written are not given here. * marks the point of attachment. C20 diacid = O=C(O)CCCCCCCCCCCCCCCCCCC(=O)*; γGlu = O=C(O)[C@H](CCC(=O)[*:2])N[*:1]
# T1: human amylin 3(a) receptor (human calcitonin receptor co-expressed with RAMP-3) (human, UniProt P30988 25-474; O60896 24-148, limits assumed)
# T1 sequence (looked up) 1: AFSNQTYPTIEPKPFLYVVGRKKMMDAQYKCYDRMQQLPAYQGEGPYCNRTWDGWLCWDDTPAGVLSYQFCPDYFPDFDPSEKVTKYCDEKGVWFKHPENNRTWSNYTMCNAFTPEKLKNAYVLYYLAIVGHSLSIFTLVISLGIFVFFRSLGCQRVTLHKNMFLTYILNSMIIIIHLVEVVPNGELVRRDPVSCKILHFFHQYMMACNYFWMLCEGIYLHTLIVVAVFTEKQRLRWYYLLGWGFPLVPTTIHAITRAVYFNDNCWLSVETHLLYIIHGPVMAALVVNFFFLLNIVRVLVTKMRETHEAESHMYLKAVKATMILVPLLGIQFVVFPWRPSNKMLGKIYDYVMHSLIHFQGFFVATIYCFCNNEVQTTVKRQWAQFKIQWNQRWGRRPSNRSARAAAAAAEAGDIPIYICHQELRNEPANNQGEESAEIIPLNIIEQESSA
# T1 sequence (looked up) 2: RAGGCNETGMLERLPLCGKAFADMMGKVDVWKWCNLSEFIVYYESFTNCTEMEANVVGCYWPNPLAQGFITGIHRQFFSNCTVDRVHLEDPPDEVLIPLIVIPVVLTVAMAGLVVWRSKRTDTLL
# T2: human calcitonin receptor (human, UniProt P30988 25-474)
# T2 sequence (looked up): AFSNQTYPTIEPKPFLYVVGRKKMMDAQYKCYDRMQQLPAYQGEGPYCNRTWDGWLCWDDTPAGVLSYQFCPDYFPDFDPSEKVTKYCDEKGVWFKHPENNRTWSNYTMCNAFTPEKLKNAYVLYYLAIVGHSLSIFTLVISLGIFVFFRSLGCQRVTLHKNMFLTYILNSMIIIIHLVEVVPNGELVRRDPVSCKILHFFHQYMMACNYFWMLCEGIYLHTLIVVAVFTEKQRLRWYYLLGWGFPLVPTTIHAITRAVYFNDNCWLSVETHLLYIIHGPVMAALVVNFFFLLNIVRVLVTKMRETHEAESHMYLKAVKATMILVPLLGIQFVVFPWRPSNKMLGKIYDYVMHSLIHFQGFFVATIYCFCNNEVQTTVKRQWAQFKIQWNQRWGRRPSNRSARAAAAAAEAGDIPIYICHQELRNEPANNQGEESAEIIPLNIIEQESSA
# Legend:
# [1] = target: T1, human amylin 3(a) receptor (human …); test: cell-based or functional assay
# [2] = target: T2, human calcitonin receptor; test: cell-based or functional assay
Binder,hAmylin-R funct. EC50 [1] [nM],Ratio hCT/hAmylin funct. [2],hCTR funct. EC50 [2] [nM]
"K([γGlu-C20 diacid])CNTATCATQRLARFLRHSSPNFGAIPSSTNVGSNTY-NH2 (disulfide 2-7; N-terminus assumed; SMILES CC[C@H](C)[C@H](NC(=O)[C@H](C)NC(=O)CNC(=O)[C@H](Cc1ccccc1)NC(=O)[C@H](CC(N)=O)NC(=O)[C@@H]1CCCN1C(=O)[C@H](CO)NC(=O)[C@H](CO)NC(=O)[C@H](Cc1c[nH]cn1)NC(=O)[C@H](CCCNC(=N)N)NC(=O)[C@H](CC(C)C)NC(=O)[C@H](Cc1ccccc1)NC(=O)[C@H](CCCNC(=N)N)NC(=O)[C@H](C)NC(=O)[C@H](CC(C)C)NC(=O)[C@H](CCCNC(=N)N)NC(=O)[C@H](CCC(N)=O)NC(=O)[C@@H](NC(=O)[C@H](C)NC(=O)[C@@H]1CSSC[C@H](NC(=O)[C@@H](N)CCCCNC(=O)CC[C@H](NC(=O)CCCCCCCCCCCCCCCCCCC(=O)O)C(=O)O)C(=O)N[C@@H](CC(N)=O)C(=O)N[C@@H]([C@@H](C)O)C(=O)N[C@@H](C)C(=O)N[C@@H]([C@@H](C)O)C(=O)N1)[C@@H](C)O)C(=O)N1CCC[C@H]1C(=O)N[C@@H](CO)C(=O)N[C@@H](CO)C(=O)N[C@H](C(=O)N[C@@H](CC(N)=O)C(=O)N[C@H](C(=O)NCC(=O)N[C@@H](CO)C(=O)N[C@@H](CC(N)=O)C(=O)N[C@H](C(=O)N[C@@H](Cc1ccc(O)cc1)C(N)=O)[C@@H](C)O)C(C)C)[C@@H](C)O, also called compound 83) [N^ε1-[(4S)-4-carboxy-4-(19-carboxynonadecanoylamino)butanoyl]-[Arg14,Arg17,Pro21,Pro27]-h-amylin]",0.405,41.6,16.8
K([γGlu-C20 diacid])CNTATCATQRLAEFLRHSSPNFGAIPSSTNVGRETY-NH2 (disulfide 2-7; N-terminus assumed; SMILES CC[C@H](C)[C@H](NC(=O)[C@H](C)NC(=O)CNC(=O)[C@H](Cc1ccccc1)NC(=O)[C@H](CC(N)=O)NC(=O)[C@@H]1CCCN1C(=O)[C@H](CO)NC(=O)[C@H](CO)NC(=O)[C@H](Cc1c[nH]cn1)NC(=O)[C@H](CCCNC(=N)N)NC(=O)[C@H](CC(C)C)NC(=O)[C@H](Cc1ccccc1)NC(=O)[C@H](CCC(=O)O)NC(=O)[C@H](C)NC(=O)[C@H](CC(C)C)NC(=O)[C@H](CCCNC(=N)N)NC(=O)[C@H](CCC(N)=O)NC(=O)[C@@H](NC(=O)[C@H](C)NC(=O)[C@@H]1CSSC[C@H](NC(=O)[C@@H](N)CCCCNC(=O)CC[C@H](NC(=O)CCCCCCCCCCCCCCCCCCC(=O)O)C(=O)O)C(=O)N[C@@H](CC(N)=O)C(=O)N[C@@H]([C@@H](C)O)C(=O)N[C@@H](C)C(=O)N[C@@H]([C@@H](C)O)C(=O)N1)[C@@H](C)O)C(=O)N1CCC[C@H]1C(=O)N[C@@H](CO)C(=O)N[C@@H](CO)C(=O)N[C@H](C(=O)N[C@@H](CC(N)=O)C(=O)N[C@H](C(=O)NCC(=O)N[C@@H](CCCNC(=N)N)C(=O)N[C@@H](CCC(=O)O)C(=O)N[C@H](C(=O)N[C@@H](Cc1ccc(O)cc1)C(N)=O)[C@@H](C)O)C(C)C)[C@@H](C)O),0.421,6.5,2.75
K([γGlu-C20 diacid])CNTATCATQRLAEFLRHSSPNFGAIPSSTNVGPETY-NH2 (disulfide 2-7; N-terminus assumed; SMILES CC[C@H](C)[C@H](NC(=O)[C@H](C)NC(=O)CNC(=O)[C@H](Cc1ccccc1)NC(=O)[C@H](CC(N)=O)NC(=O)[C@@H]1CCCN1C(=O)[C@H](CO)NC(=O)[C@H](CO)NC(=O)[C@H](Cc1c[nH]cn1)NC(=O)[C@H](CCCNC(=N)N)NC(=O)[C@H](CC(C)C)NC(=O)[C@H](Cc1ccccc1)NC(=O)[C@H](CCC(=O)O)NC(=O)[C@H](C)NC(=O)[C@H](CC(C)C)NC(=O)[C@H](CCCNC(=N)N)NC(=O)[C@H](CCC(N)=O)NC(=O)[C@@H](NC(=O)[C@H](C)NC(=O)[C@@H]1CSSC[C@H](NC(=O)[C@@H](N)CCCCNC(=O)CC[C@H](NC(=O)CCCCCCCCCCCCCCCCCCC(=O)O)C(=O)O)C(=O)N[C@@H](CC(N)=O)C(=O)N[C@@H]([C@@H](C)O)C(=O)N[C@@H](C)C(=O)N[C@@H]([C@@H](C)O)C(=O)N1)[C@@H](C)O)C(=O)N1CCC[C@H]1C(=O)N[C@@H](CO)C(=O)N[C@@H](CO)C(=O)N[C@H](C(=O)N[C@@H](CC(N)=O)C(=O)N[C@H](C(=O)NCC(=O)N1CCC[C@H]1C(=O)N[C@@H](CCC(=O)O)C(=O)N[C@H](C(=O)N[C@@H](Cc1ccc(O)cc1)C(N)=O)[C@@H](C)O)C(C)C)[C@@H](C)O),0.161,5.2,0.841

# Second part, the binder after the results:
hAmylin-R funct. EC50 [1] [nM],Ratio hCT/hAmylin funct. [2],hCTR funct. EC50 [2] [nM],Binder
0.07,4.5,0.316,"K([γGlu-C20 diacid])CNTATCATQRLAAFLRHSSPNFGAIPSSTNVGPNTY-NH2 (disulfide 2-7; N-terminus assumed; SMILES CC[C@H](C)[C@H](NC(=O)[C@H](C)NC(=O)CNC(=O)[C@H](Cc1ccccc1)NC(=O)[C@H](CC(N)=O)NC(=O)[C@@H]1CCCN1C(=O)[C@H](CO)NC(=O)[C@H](CO)NC(=O)[C@H](Cc1c[nH]cn1)NC(=O)[C@H](CCCNC(=N)N)NC(=O)[C@H](CC(C)C)NC(=O)[C@H](Cc1ccccc1)NC(=O)[C@H](C)NC(=O)[C@H](C)NC(=O)[C@H](CC(C)C)NC(=O)[C@H](CCCNC(=N)N)NC(=O)[C@H](CCC(N)=O)NC(=O)[C@@H](NC(=O)[C@H](C)NC(=O)[C@@H]1CSSC[C@H](NC(=O)[C@@H](N)CCCCNC(=O)CC[C@H](NC(=O)CCCCCCCCCCCCCCCCCCC(=O)O)C(=O)O)C(=O)N[C@@H](CC(N)=O)C(=O)N[C@@H]([C@@H](C)O)C(=O)N[C@@H](C)C(=O)N[C@@H]([C@@H](C)O)C(=O)N1)[C@@H](C)O)C(=O)N1CCC[C@H]1C(=O)N[C@@H](CO)C(=O)N[C@@H](CO)C(=O)N[C@H](C(=O)N[C@@H](CC(N)=O)C(=O)N[C@H](C(=O)NCC(=O)N1CCC[C@H]1C(=O)N[C@@H](CC(N)=O)C(=O)N[C@H](C(=O)N[C@@H](Cc1ccc(O)cc1)C(N)=O)[C@@H](C)O)C(C)C)[C@@H](C)O, also called compound 94)"
0.161,24.5,3.94,"K([γGlu-C20 diacid])CNTATCATQRLANFLRHSSPNFGAIPSSTNVGRNTY-NH2 (disulfide 2-7; N-terminus assumed; SMILES CC[C@H](C)[C@H](NC(=O)[C@H](C)NC(=O)CNC(=O)[C@H](Cc1ccccc1)NC(=O)[C@H](CC(N)=O)NC(=O)[C@@H]1CCCN1C(=O)[C@H](CO)NC(=O)[C@H](CO)NC(=O)[C@H](Cc1c[nH]cn1)NC(=O)[C@H](CCCNC(=N)N)NC(=O)[C@H](CC(C)C)NC(=O)[C@H](Cc1ccccc1)NC(=O)[C@H](CC(N)=O)NC(=O)[C@H](C)NC(=O)[C@H](CC(C)C)NC(=O)[C@H](CCCNC(=N)N)NC(=O)[C@H](CCC(N)=O)NC(=O)[C@@H](NC(=O)[C@H](C)NC(=O)[C@@H]1CSSC[C@H](NC(=O)[C@@H](N)CCCCNC(=O)CC[C@H](NC(=O)CCCCCCCCCCCCCCCCCCC(=O)O)C(=O)O)C(=O)N[C@@H](CC(N)=O)C(=O)N[C@@H]([C@@H](C)O)C(=O)N[C@@H](C)C(=O)N[C@@H]([C@@H](C)O)C(=O)N1)[C@@H](C)O)C(=O)N1CCC[C@H]1C(=O)N[C@@H](CO)C(=O)N[C@@H](CO)C(=O)N[C@H](C(=O)N[C@@H](CC(N)=O)C(=O)N[C@H](C(=O)NCC(=O)N[C@@H](CCCNC(=N)N)C(=O)N[C@@H](CC(N)=O)C(=O)N[C@H](C(=O)N[C@@H](Cc1ccc(O)cc1)C(N)=O)[C@@H](C)O)C(C)C)[C@@H](C)O, also called compound 79) [N^ε1-[(4S)-4-carboxy-4-(19-carboxynonadecanoylamino)butanoyl]-[Arg17,Pro21,Pro27,Arg34]-h-amylin]"
0.376,17,6.38,K([γGlu-C20 diacid])CNTATCATQRLAEFLRHSSPNFGAIPSSTNVGPRTY-NH2 (disulfide 2-7; N-terminus assumed; SMILES CC[C@H](C)[C@H](NC(=O)[C@H](C)NC(=O)CNC(=O)[C@H](Cc1ccccc1)NC(=O)[C@H](CC(N)=O)NC(=O)[C@@H]1CCCN1C(=O)[C@H](CO)NC(=O)[C@H](CO)NC(=O)[C@H](Cc1c[nH]cn1)NC(=O)[C@H](CCCNC(=N)N)NC(=O)[C@H](CC(C)C)NC(=O)[C@H](Cc1ccccc1)NC(=O)[C@H](CCC(=O)O)NC(=O)[C@H](C)NC(=O)[C@H](CC(C)C)NC(=O)[C@H](CCCNC(=N)N)NC(=O)[C@H](CCC(N)=O)NC(=O)[C@@H](NC(=O)[C@H](C)NC(=O)[C@@H]1CSSC[C@H](NC(=O)[C@@H](N)CCCCNC(=O)CC[C@H](NC(=O)CCCCCCCCCCCCCCCCCCC(=O)O)C(=O)O)C(=O)N[C@@H](CC(N)=O)C(=O)N[C@@H]([C@@H](C)O)C(=O)N[C@@H](C)C(=O)N[C@@H]([C@@H](C)O)C(=O)N1)[C@@H](C)O)C(=O)N1CCC[C@H]1C(=O)N[C@@H](CO)C(=O)N[C@@H](CO)C(=O)N[C@H](C(=O)N[C@@H](CC(N)=O)C(=O)N[C@H](C(=O)NCC(=O)N1CCC[C@H]1C(=O)N[C@@H](CCCNC(=N)N)C(=O)N[C@H](C(=O)N[C@@H](Cc1ccc(O)cc1)C(N)=O)[C@@H](C)O)C(C)C)[C@@H](C)O)
